# In the nanobody polyreactivity screen of Harvey et al. (2022):
# Experiment: yeast display, Sf9 membrane polyspecificity reagent, FACS + sequencing; frameworks hold sequencing errors
# Method in brief: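 Sorting gates, low and high (top ~1%), were placed on anti-HA fluorescence to track expression and on streptavidin fluorescence to track reagent binding. A clone's polyreactivity label is taken from the gate it came out of. The reagent was 10% biotinylated, detergent-solubilized Sf9 membrane, applied for 1 hour at 4 °C to galactose-induced yeast display cells.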
row,Sequence,polyreactivity (PSR sort gate)
1,QVQLVESWGGLVQAGGSLRLRCAASGRIFVSNAMGWYRQAPGKERELVAAISKRGASTYYADSVKGRFTISRDNAKNTVYLQMNSLKPEDTAVYYCNVVTPGGPNYDYWGQGTQVTVSS,high polyreactivity
2,QVQLVESWGGLVQAGGSLRLSCAASGFTLYYYAMGWYRPAPGKERELVARISLRGGRTYYADSVKGRFTISRDNAKTTVYLQMNSLKPEESAVYYCAAVGRYPITWESGESDYWGQGTQVTVSS,high polyreactivity
3,QVQLVESWGGLVQAGGSLRLSCAASGIIFQNYDMGWYRQAPGKERELVAAITGSGGSTYYADSVKGRFTISRDNAKNIVYLQMNSLKPEDTAVYYCAASSFVVSGYNKYYEYGYWGQGTQVTVSS,low polyreactivity
4,QVQLVESWGGLVQAGGSLRLSCAASGLIFVGNAMGWYRQAPGKERELVAAISSRGGRTYYADSVKGRFTISRDNAKNTVYLQMNSLKPEDTAVYYCAARVWRYPYYWGQGTQVTVSS,high polyreactivity
5,QVQLVESWGGLVQAGGSLRLSCAASGRIFYVYDMGWYRQAPGKERELVAAISWSGGSTSYADSVKGRFTISRDKAMYTVYLQMNSLKPEDTAVNYCAATSAIGWGYDYWGQGTQVNVSS,low polyreactivity
6,QVQLVESWGGLVQAGGSLRLSCAASGRIIDRKAMGWYRQAPGKERELVAAISSSGSTNYADSVKGRFTFSRDNAKNTVYLQMISLKPEDTSVYYCAARWRSVLAAGTRPVSFDYWGQGTQVTVSS,low polyreactivity
7,QVQLVESWGGLVQAGGSLRLSCAASGRIINQYAMGWYRQAPGKERELVAAITLNGGSTYYADSVKGRFTISRDNAKNTVYLQMNSLKPEDTAVYYCNNRYTHYSRKGVSYPKYDYWGQGNQVTVSS,high polyreactivity
8,QVQLVESWGGLVQAGGSLRLSCAASGRILNYYDMGWYRQAPGKERELVAGISRGGSTTYADSVKGRFTISRDNAKNTVYLQMISLKPEDTAVYYCNADRSHYWLPYGVRFDYWGQGTQVNVSS,low polyreactivity
9,QVQLVESWGGLVQAGGSLRLSCAASGRTFHSYAMGWYRQAPGKERELVAAITSSGGSTYYADSVKGRFTISRDNAKNTVYLQMNSLKPEDTAVYYCAAPYRYLSRGGEMGYWGQGTQVTVSS,high polyreactivity
10,QVQLVESWGGLVQAGGSLRLSCAASGRTFRLYAMGWYRQAPGKERELVATNTSTGSTNYADSVKGRFTISRDNAKNTVFLQMNSLKPDDTAVYYCNAAWYNPKSWTQYPPFDYWGQGTQVTVSS,high polyreactivity
11,QVQLVESWGGLVQAGGSLRLSCAASGRTFRRNAMGWYRQSPGKERELVATISSSGGRTYYADSVKGRFTISRDNAKKTVYLQMNSLKPEDTAVYYCIKALRSYPLFYFWVQGTQVTVSS,high polyreactivity
12,QVQLVESWGGLVQAGGSLRLSCAASGRTLGRNAMGWYRQAPGKEREWVASISSGGSTNYADSVKGRFTISRDNAKNTVYLQMNSLKPEDTAVYYCNKRYRSLYSSGYDYWGQGTQVTVSS,high polyreactivity
13,QVQLVESWGGLVQAGGSLRLSCAASGRTSGNYAMGWYRQAPGKERELVAAIRYSGSSTFYADSVKGRFTISRDNAKNTVYLQMNSLKPEDTAVYYCARDIRRKGFRYDYWGQGTQVNVSS,high polyreactivity
14,QVQLVESWGGLVQAGGSLRLSCAASGSIFDNYAMGWYRQAPGKERELVAAISWSGGRTYYADSVKGRFTISRDNAKNTVYLQMNSLKPEDTAVYYCAAYVYTSFLYYYWGQGTQVTVSS,high polyreactivity
15,QVQLVESWGGLVQAGGSLRLSCAASGSIFPRNAMGWYRQAPGKERELVATISSGGSTYYADSVKGRFTISRDNAKNTVYLQMNSLKPEDTAVYYCAAEYVVRAIDVDYDYWGQGTQVTVSS,high polyreactivity
16,QVQLVESWGGLVQAGGSLRLSCAASGSIFSPYAIGWYRQAPGKERELVAAISFRASTTYYADSVKGRFTITRDNAKNTVYLQMNSLKPEDTAVYYCAASPLYSWFWGLYDYWGQGTQVTVSS,low polyreactivity

row,Sequence,polyreactivity (PSR sort gate)
1,QVQLVESWGGLVQAGGSLRLSCAASGSIFSYYGMGRYRQARGKERELVAAITRSTGSTYYADSVKGRFTISRDNAKNTVYLQMNSLKPEDTAVYYCATDYVVLWEFDYWGQGTQVTVSS,low polyreactivity
2,QVQLVESWGGLVQAGGSLRLSCAASGSTFAVNAMGCYRQAPGKERELVDAITVSGGSTDYAYSVKRPFTISRDNAKYSVYLQLNRLKPEDTGVYYCADVRMKYYIYGGYDYWGQGTQVNVSS,low polyreactivity
3,QVQLVESWGGLVQAGGSLRLSCAASGTTFTVYAMGWYRQAPGKERELVAAISWSTGRTYYADSVKGRFTISRDHAKNTVYLQMNSLKPEDTAVYYCAARVSYYRTPAEYGYWGQGTQVTVSS,high polyreactivity
4,QVQLVESWGGLVQAGGSLRLSCAASGYIFDRYAMGWYRQAPGKERELVAAISGRGGSTYYADSVKGRFTISRDNAKNTVYLQMNSLKPEDTAVYYCARDVYVRNGQRARYDSWGQGTQVTVSS,high polyreactivity
5,QVQLVESWGGLVQAGGSLRLSCADSGRIFRGYGMGWYIQAPGKERELVAVISYSGTPTYYADSVKGRFTISRDNAKNTVYLQMNSLKAEDTAVYYCAARLYWIPPSPSRYDYWLQGTQVTVSS,high polyreactivity
6,QVQLVESWGGLVQAGGSLRLSCDASGSTFDGNDMGWSRPAPGKQRELVAAITIGGGSTYYADSVKGRFTISRDNAKNTVYLQMNSLKPEDTADYYCATEWVTGSEDYDYWGQGTQVTVSS,low polyreactivity
7,QVQLVESWGGLVQAGGSLRLSCPASGYIIQTYAMGWYRQAPGKEREFLAAMTSGAGRTSYADSVKGRFTISRDNAKNTVYLQLHRLKPEDTAVYFCAARWRYQLSGSRLSYGKYDYWGQGTQVTVSS,high polyreactivity
8,QVQLVESWGGLVQAGGSLRLSCSAYGYTFTLTPMGWSRQAPGKERELVAAISRSGGSTYYADSVKGRFTISRDNAKNTVYLQMISLKPEDTAVYYCDADGYSGYDYWGQGTLVTVSS,low polyreactivity
9,QVQLVESWGGLVQAGGSLSLSCAASGSIFAANAMGWYRQAPGKERELVAAISWSGGSTYADSVKRRFTISRDNEKNTVYLQRNSLKPEDTAVYYCAADLCSQYKFGYCGQGTQVTVSS,low polyreactivity
10,QVQLVESWGGLVQAGRSLRLSCAASGRTFYNYAMGWYRQAPGKERELVAAITRGGSTYYADSVKGRFTISRDNAKNTVYLHMNSLKPEDTAVYFCNAKYIKGRDWGQGTQVTVSS,high polyreactivity
11,QVQLVESWGGLVQEGGSLRVSCAASGSIFSHYAMGRYRQAPGKEREFVAAIPRGVSTYYADSVKGRFTISRDNAKNTVYLLMNSLKPEYTGVYSCNKTYVRGVHGVYLPITSYDYWGQGTQVTVSS,low polyreactivity
12,QVQLVESWGVLVQAGGSLRLSCAASGYTFLVYAMGWYRQAPGKERELVAGITRGSSTYADSVKGRFTISRDNAKNTVYLQMNSLKPEDTAVYYCAARFAKQDYDYWGQGTQVTVSS,high polyreactivity
13,QVQLVETGGCLVQAGCSLRLSCAASGIIFYEYAMGRYRQAPGKERELVAAIDWSGGSTYYADSVKGRFTISRDNAKNTVYLQMNRLKPEDSAVYYCAAQWAWVDYFGNWYASTYDYWGQGTQVTVSS,high polyreactivity
14,QVQLVETGGGIVQAGGSLRLSCASSGRTFNKYAMGRYRKAPGKERELVAAINYSGGRTDYADSVKGRFTISRDNAKNTVYLQMNSLKPDDTAVYYCAASPTFFVWQGYNYWGQGTQVTVSS,low polyreactivity
15,QVQLVETGGGIVQAGVSLRISCASSGRTFRWYAMGWSRQSPGKERELVAAITSGGGTYYADSVKGLFTISRDYAKNTVYLQMNRLKREDTAVYYCNKLHRDRYDYWGQGTQVTVSS,high polyreactivity
